Experimental findings from patent publication CN114652851A (STONE BIOPHARMACEUTICAL CO LTD, dated 2022) are described below.

The target of this assay is T1, Human TROP2蛋白 (human, UniProt P09758 27-274, limits assumed).
T1 construct: also called 人TROP2
T1 sequence (looked up): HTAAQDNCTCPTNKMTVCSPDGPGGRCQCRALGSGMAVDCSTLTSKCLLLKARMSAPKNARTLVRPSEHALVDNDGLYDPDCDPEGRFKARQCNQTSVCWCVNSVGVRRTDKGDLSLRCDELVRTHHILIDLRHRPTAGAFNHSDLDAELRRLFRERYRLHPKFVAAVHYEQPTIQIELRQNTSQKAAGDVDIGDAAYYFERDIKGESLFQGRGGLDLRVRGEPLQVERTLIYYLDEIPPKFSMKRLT
Description: ELISA, TROP2 protein incubated with antibody dilutions, goat anti-human IgG (H+L) secondary antibody. (In general: In an ELISA, binding on a coated surface is turned into a signal by an enzyme label.)

B1: SY02人源化抗体 (人源化抗TROP2抗体SY02) (antibody, human IgG1, kappa, V domains shown)
VH: QVQLVQSGAEVKKPGSSVKVSCKASGYTFTDYSINWVRQAPGQGLEWMGVISTYYGDASYNQKFKGRVTITADESTSTAYMELSSLRSEDTAVYYCARYGDGYNQFDYWGQGTLVTVSS
VL: DIQMTQSPSSLSASVGDRVTITCRVSESVDSYGNNFMHWYQQKPGKAPKLLIYRASNLESGVPSRFSGSGSGTDFTFTISSLQPEDIATYYCQQSYEDPYTFGGGTKLEIKR
notes: also called 裸抗SY02
As for B1, the binding result is on record as “binds”.
